Data from PMC12005531, “Structure of the scaffolding protein and portal within the bacteriophage P22 procapsid provides insights into the self-assembly process” (PLOS Biology, 2025).
“And” between values parts separate entries of the source, which are not always exact repeats. Equal values may be shown once.

Target: the molecule itself
Assay: cryo-EM structure; P22 procapsids (upper CsCl band) from infected S. typhimurium, in phage buffer (10 mM Tris-HCl, 1 mM MgCl2, pH 7.4); symmetry-mismatch reconstruction at about 9 Å and local reconstructions (portal 3.0 Å with C12, nodules 4.9 Å, SP trimer 6.9 Å, SP tetramer 6.9 Å, C-loop 6.7 Å); AlphaFold2 model of gp8 fitted into the maps

B1: bacteriophage P22 scaffolding protein gp8 (natural protein, UniProt P26748 1-303, looked up)
chain: MEPTTEIQATEDLTLSGDHAAASADSLVVDNANDNAGQEEGFEIVLKDDETAPKQDPAKNAEFARRRIERKRQRELEQQMEAVKRGELPESLRVNPDLPPQPDINAYLSEEGLAKYDYDNSRALAAFNAANTEWLMKAQDARSNAVAEQGRKTQEFTQQSAQYVEAARKHYDAAEKLNIPDYQEKEDAFMQLVPPAVGADIMRLFPEKSAALMYHLGANPEKARQLLAMDGQSALIELTRLSERLTLKPRGKQISSAPPADQPITGDVSAANKDAIRKQMDAAASKGDVETYRKLKAKLKGIR
notes: scaffolding protein gp8 of bacteriophage P22, 303 amino acid residues, 33.6 kDa; domains: N-loop 1-57, base 58-84 and 163-245, column 85-162, C-loop 246-267, hook 268-303; the N-loop was not resolved; Native protein within the procapsid; About 250-300 copies per procapsid, from cited work; also called SP; P22 SP; source: phage P22 propagated in S. typhimurium; inside procapsids purified by CsCl …
- stoichiometry N: 2 and 3 and 4
